Source: patent US20170233495

System: All antibodies according to the invention, which were tested (Example 4)

recombinant catalytic domain of human MMP8, sequence (chain, as listed by the source): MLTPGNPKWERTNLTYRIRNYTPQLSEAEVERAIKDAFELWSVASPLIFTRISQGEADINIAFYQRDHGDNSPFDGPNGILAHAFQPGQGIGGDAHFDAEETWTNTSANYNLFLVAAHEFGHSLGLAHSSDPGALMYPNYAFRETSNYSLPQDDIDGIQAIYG
recombinant catalytic domain of human MMP2, sequence (chain, as listed by the source): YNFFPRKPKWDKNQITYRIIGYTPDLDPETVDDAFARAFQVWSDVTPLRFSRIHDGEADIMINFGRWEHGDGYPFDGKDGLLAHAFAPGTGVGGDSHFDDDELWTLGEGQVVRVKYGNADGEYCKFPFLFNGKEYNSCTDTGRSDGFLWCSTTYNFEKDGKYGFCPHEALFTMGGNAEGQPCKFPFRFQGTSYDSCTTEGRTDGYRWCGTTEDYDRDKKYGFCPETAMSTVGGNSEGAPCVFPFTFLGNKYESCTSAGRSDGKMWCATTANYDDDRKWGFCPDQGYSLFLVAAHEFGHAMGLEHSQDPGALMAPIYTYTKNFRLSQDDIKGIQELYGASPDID
recombinant catalytic domain of human MMP3, sequence (chain, as listed by the source): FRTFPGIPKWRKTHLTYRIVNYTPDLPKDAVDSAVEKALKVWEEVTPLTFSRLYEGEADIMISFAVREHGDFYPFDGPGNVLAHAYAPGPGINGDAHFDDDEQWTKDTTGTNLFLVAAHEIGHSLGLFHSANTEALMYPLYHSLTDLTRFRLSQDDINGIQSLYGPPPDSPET
recombinant catalytic domain of human MMP19, sequence (chain, as listed by the source): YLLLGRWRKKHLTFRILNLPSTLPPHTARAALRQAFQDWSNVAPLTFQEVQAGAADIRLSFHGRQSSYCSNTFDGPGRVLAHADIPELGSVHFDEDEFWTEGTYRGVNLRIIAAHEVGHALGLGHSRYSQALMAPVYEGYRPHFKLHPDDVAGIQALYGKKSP

Substance	cleavage of fluorogenic peptide OmniMMP RED by MMP catalytic domain, antibody at 100 nM
recombinant catalytic domain of human MMP2	had no significant effect on the catalytic activity of the eight other human MMPs tested
recombinant catalytic domain of human MMP3	had no significant effect on the catalytic activity of the eight other human MMPs tested
recombinant catalytic domain of human MMP8	had no significant effect on the catalytic activity of the eight other human MMPs tested
recombinant catalytic domain of human MMP13	had no significant effect on the catalytic activity of the eight other human MMPs tested
recombinant catalytic domain of human MMP19	had no significant effect on the catalytic activity of the eight other human MMPs tested
